Source: article PMC6449355, “A TetR-family transcription factor regulates fatty acid metabolism in the archaeal model organism Sulfolobus acidocaldarius” (Nature Communications, 2019)

How the values were obtained:
FadRSa [1] = target: T1, FadRSa (Sulfolobus acidocaldarius, UniProt Q4J9S1); experiment: EMSA, release of FadRSa from operator DNA; format: binding; conditions: 154-bp Saci_1106 operator probe, pH 8.0, 37 °C; allosteric inducer
T1 construct: gene Saci_1107; full-length, recombinant in E. coli Rosetta (DE3), His-tagged (N-terminal from pET45b or C-terminal from pET24a; mutants C-terminal), tag kept; homodimer, 44 kDa

FadRSa [2] = target: T2, FadRSa (Sulfolobus acidocaldarius, UniProt Q4J9S1, M101A); experiment: EMSA, ligand response of mutant (fraction of bound DNA); format: binding; conditions: pH 8.0, 37 °C; allosteric inducer
T2 construct: gene Saci_1107; full-length, recombinant in E. coli Rosetta (DE3), His-tagged (N-terminal from pET45b or C-terminal from pET24a; mutants C-terminal), tag kept; homodimer, 44 kDa
T2 sequence (Q4J9S1 entry or part of it M101A): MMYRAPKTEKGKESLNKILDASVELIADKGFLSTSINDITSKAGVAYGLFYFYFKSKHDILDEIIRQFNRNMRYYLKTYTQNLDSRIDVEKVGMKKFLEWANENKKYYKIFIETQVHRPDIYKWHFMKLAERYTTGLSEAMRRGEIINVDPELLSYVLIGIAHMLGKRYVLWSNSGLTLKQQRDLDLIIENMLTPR

[3] = target: T3, FadRSa (Sulfolobus acidocaldarius) (UniProt Q4J9S1); experiment: DNase I footprinting; conditions: EMSA/DNase I: 20 mM Tris-HCl pH 8.0, 1 mM MgCl2, 0.1 mM DTT, 12.5% glycerol, 50 mM NaCl, 0.4 mM EDTA, 37 C; EMSA with about 0.1 nM 32P-DNA and excess …
T3 sequence: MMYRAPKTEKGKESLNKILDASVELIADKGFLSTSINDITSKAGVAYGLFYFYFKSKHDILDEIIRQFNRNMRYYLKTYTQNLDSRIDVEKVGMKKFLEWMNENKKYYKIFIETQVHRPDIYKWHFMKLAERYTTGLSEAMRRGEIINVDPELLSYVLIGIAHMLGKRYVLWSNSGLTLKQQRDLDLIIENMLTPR

[4] = target: T3, FadRSa (Sulfolobus acidocaldarius); experiment: Cu-phenanthroline footprinting; conditions: EMSA/DNase I: 20 mM Tris-HCl pH 8.0, 1 mM MgCl2, 0.1 mM DTT, 12.5% glycerol, 50 mM NaCl, 0.4 mM EDTA, 37 C; EMSA with about 0.1 nM 32P-DNA and excess …
[5] = target: T3, FadRSa (Sulfolobus acidocaldarius); experiment: EMSA; conditions: EMSA/DNase I: 20 mM Tris-HCl pH 8.0, 1 mM MgCl2, 0.1 mM DTT, 12.5% glycerol, 50 mM NaCl, 0.4 mM EDTA, 37 C; EMSA with about 0.1 nM 32P-DNA and excess …
[6] = target: T3, FadRSa (Sulfolobus acidocaldarius); experiment: footprinting; conditions: EMSA/DNase I: 20 mM Tris-HCl pH 8.0, 1 mM MgCl2, 0.1 mM DTT, 12.5% glycerol, 50 mM NaCl, 0.4 mM EDTA, 37 C; EMSA with about 0.1 nM 32P-DNA and excess …
FadRSa [7] = target: T4, FadRSa (Sulfolobus acidocaldarius, UniProt Q4J9S1 1-196); experiment: EMSA; single complex B; EMSA/DNase I: 20 mM Tris-HCl pH 8.0, 1 mM MgCl2, 0.1 mM DTT, 12.5% glycerol, 50 mM NaCl, 0.4 mM EDTA, 37 C; EMSA with about 0.1 nM 32P-DNA and excess nonspecific competitor DNA; conditions: protein: recombinant; (N-terminal pET45b or C-terminal pET24a His tag); chain copies: 2; label: 32P 5' end (EMSA); none (SEC); blunt
T4 sequence: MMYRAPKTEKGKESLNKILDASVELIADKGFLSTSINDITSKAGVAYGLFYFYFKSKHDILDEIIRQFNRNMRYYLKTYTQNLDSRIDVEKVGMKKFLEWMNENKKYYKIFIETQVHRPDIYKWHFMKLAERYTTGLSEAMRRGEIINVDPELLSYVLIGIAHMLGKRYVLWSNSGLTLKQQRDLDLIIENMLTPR

FadRSa [8] = target: T4, FadRSa; experiment: EMSA; two complexes B1 and B2; EMSA/DNase I: 20 mM Tris-HCl pH 8.0, 1 mM MgCl2, 0.1 mM DTT, 12.5% glycerol, 50 mM NaCl, 0.4 mM EDTA, 37 C; EMSA with about 0.1 nM 32P-DNA and excess nonspecific competitor DNA; conditions: protein: recombinant; (N-terminal pET45b or C-terminal pET24a His tag); chain copies: 2; label: 32P 5' end; blunt
FadRSa [9] = target: T4, FadRSa; experiment: SEC; 40:1 protein:DNA; complex B2, 179 kDa, two dimers; EMSA/DNase I: 20 mM Tris-HCl pH 8.0, 1 mM MgCl2, 0.1 mM DTT, 12.5% glycerol, 50 mM NaCl, 0.4 mM EDTA, 37 C; EMSA with about 0.1 nM 32P-DNA and excess nonspecific competitor DNA; conditions: protein: recombinant; (N-terminal pET45b or C-terminal pET24a His tag); chain copies: 2; label: 32P 5' end (EMSA); none (SEC); blunt
[10] = target: the molecule itself; experiment: SEC; free purified FadRSa; apparent molecular weight from a calibrated column (Superdex 200 Increase 10/30 GL, 20 mM Na2HPO4 pH 7.4, 150 mM NaCl)
[11] = target: the molecule itself; experiment: crystal structure; SeMet FadRSa, SAD, 2.4 Å, space group P21, two molecules per asymmetric unit; acyl-CoA in subunit B
[12] = target: the molecule itself; experiment: native gel or EMSA; dimer with dimer on operator DNA: 45-bp 32P-labelled wildtype or mutated Saci_1123 operator probes; 20 mM Tris-HCl pH 8.0, 1 mM MgCl2, 0.1 mM DTT, 12.5% glycerol, 50 mM NaCl, 0.4 mM EDTA, 37 °C; 6% acrylamide gels
FadRSa [13] = target: T4, FadRSa; experiment: X-ray crystallography; 3.29 A; three dimers with two duplexes; EMSA/DNase I: 20 mM Tris-HCl pH 8.0, 1 mM MgCl2, 0.1 mM DTT, 12.5% glycerol, 50 mM NaCl, 0.4 mM EDTA, 37 C; EMSA with about 0.1 nM 32P-DNA and excess nonspecific competitor DNA; conditions: protein: recombinant; (N-terminal pET45b or C-terminal pET24a His tag); chain copies: 2; blunt

Question: Which “EMSA, release of FadRSa from operator DNA” value (FadRSa [1]) does the source give for `CCCCCCCC/C=C\CCCCCCCC(=O)SCCNC(=O)CCNC(=O)[C@H](O)C(C)(C)COP(=O)(O)OP(=O)(O)OC[C@H]1O[C@@H](n2cnc3c(N)ncnc32)[C@H](O)[C@@H]1OP(=O)(O)O` [oleoyl-CoA] here?
Answer: addition of acetyl-CoA or hexanoyl-CoA does not affect sensitivity of the protein to oleoyl-CoA

Question: And the “EMSA, ligand response of mutant (fraction of bound DNA)” value (FadRSa [2])?
Answer: alanine mutation of the allosterically altered Met101 residue desensitizes the protein to oleoyl-CoA

Question: What does the source list for “CGCCCTTTAGAGTGTGGAAGAAGTCAGTGGCACAGTTCTCTTCGTTTAAGCTTTTTTGTATCTCTTCATCAAAATTAAACTATTTGTTTTATTCATTATATCTTAATGTATTTGTGTAAATAATCTTCTTTATTCTAATCAATAAAATTATCGGAGAAGTTTATTATCGAGTTTACCTTTTAACTACAATGATAGTCGACTCAAAAATCAAGTAGTAAAGGTGGTGTGATGTATAGGGCTCC (double strand) [Saci_1107 (fadRSa) peak 2 fragment]”?
Answer: binding [3]: binds; binding [4]: binds; binding [5]: binds

Question: For “CTACTTTCTAATATCACTATATTCACGCCTGGCAGACCCGACCTACTATGTTTAAACTTTTATAAAGTTGACATTATAATCAACTGATTATTTTAAAGGCAGTTCTAATTTTTCAAATAAACATAACACTAATCCTATAGATATAACTAATAAC (double strand) [Saci_1123 peak 4 footprint fragment]”, which binding [6] is on record?
Answer: binds

Question: What does the source list for “CTTCACTCCAAATCCTATTAGGAAAGCTGACACTGAACCGACCTTTTAACTACAATGATAGTCGACTCAAAAATCAAGTATAATATAGTCGAAATATGCCCTCTTGAATAAAACCATGAAATATAAATGAGTCTATTCTGATCTGATAAAGTTC (double strand) [Saci_1106 peak 1 fragment]”?
Answer: binding [3]: binds; binding [5]: binds

B1: Saci_1123 operator 45-bp (dsDNA)
DNA 1: ACTACATAATCAGTTGATTATAATGTCAACTTTATAAAGTGGTGT
DNA 2: ACACCACTTTATAAAGTTGACATTATAATCAACTGATTATGTAGT
Question: Does B1 bind (FadRSa [7])?
Answer: binds

B2: mutated Saci_1123 operator 45-bp (dsDNA)
DNA 1: ACTACATAGTCAGTTGATTCTAATGTCAACTTTATAAAGTGGTGT
DNA 2: ACACCACTTTATAAAGTTGACATTAGAATCAACTGACTATGTAGT
Question: Does B2 bind (FadRSa [8])?
Answer: binds

B3: fadRSa operator 45-bp (dsDNA)
DNA 1: ACTACAATGATAGTCGACTCAAAAATCAAGTAGTAAAGGTGGTGT
DNA 2: ACACCACCTTTACTACTTGATTTTTGAGTCGACTATCATTGTAGT
Question: Does B3 bind (FadRSa [9])?
Answer: binds

B4: FadRSa (TetR-family transcriptional regulator encoded by Saci_1107), recombinant His-tagged (natural protein, Sulfolobus acidocaldarius, UniProt Q4J9S1 1-196, looked up)
chain: MMYRAPKTEKGKESLNKILDASVELIADKGFLSTSINDITSKAGVAYGLFYFYFKSKHDILDEIIRQFNRNMRYYLKTYTQNLDSRIDVEKVGMKKFLEWMNENKKYYKIFIETQVHRPDIYKWHFMKLAERYTTGLSEAMRRGEIINVDPELLSYVLIGIAHMLGKRYVLWSNSGLTLKQQRDLDLIIENMLTPR
notes: FadRSa, TetR-family regulator encoded by Saci_1107 of Sulfolobus acidocaldarius; the fadRSa coding region amplified from genomic DNA; An N-terminally His-tagged (pET45b) and a C-terminally His-tagged (pET24a) construct were both made; also called wildtype FadRSa; source: E. coli Rosetta (DE3), purified (heat treatment 80 °C, His GraviTrap IMAC)
Question: Which “stoichiometry N” value [10] does the source give for B4 here?
Answer: 2

B5: SeMet FadRSa (selenomethionine-substituted FadRSa) (natural protein, Sulfolobus acidocaldarius, UniProt Q4J9S1 1-196, looked up)
chain: MMYRAPKTEKGKESLNKILDASVELIADKGFLSTSINDITSKAGVAYGLFYFYFKSKHDILDEIIRQFNRNMRYYLKTYTQNLDSRIDVEKVGMKKFLEWMNENKKYYKIFIETQVHRPDIYKWHFMKLAERYTTGLSEAMRRGEIINVDPELLSYVLIGIAHMLGKRYVLWSNSGLTLKQQRDLDLIIENMLTPR
modifications: selenomethionine-substituted
notes: FadRSa, TetR-family regulator encoded by Saci_1107 of Sulfolobus acidocaldarius; the fadRSa coding region in pET45b (BamHI/HindIII); One subunit (B) of the crystallised dimer carried an acyl-CoA, likely derived from E. coli; also called SeMet-substituted FadRSa; SeMet-derivated FadRSa
Question: Does B5 bind [11]?
Answer: binds

B6: FadRSa N37A (natural protein, Sulfolobus acidocaldarius, UniProt Q4J9S1 1-196, looked up)
chain: MMYRAPKTEKGKESLNKILDASVELIADKGFLSTSIADITSKAGVAYGLFYFYFKSKHDILDEIIRQFNRNMRYYLKTYTQNLDSRIDVEKVGMKKFLEWMNENKKYYKIFIETQVHRPDIYKWHFMKLAERYTTGLSEAMRRGEIINVDPELLSYVLIGIAHMLGKRYVLWSNSGLTLKQQRDLDLIIENMLTPR
notes: FadRSa, encoded by Saci_1107 of Sulfolobus acidocaldarius; made by site-directed mutagenesis with pET24axfadRSaNdenull as template; also called N37A mutant FadRSa; source: E. coli Rosetta (DE3), purified (heat treatment 80 °C, His GraviTrap IMAC)
Question: Does B6 bind [12]?
Answer: binds

B7: fadRSa operator 21-mer (dsDNA)
DNA 1: GTCGACTCAAAAATCAAGTAG
DNA 2: CTACTTGATTTTTGAGTCGAC
Question: Does B7 bind (FadRSa [13])?
Answer: binds
